According to publication PMC4422123, “The peroxisomal protein import machinery displays a preference for monomeric substrates” (Open Biology, 2015):

Key:
[1] = biological target: acyl-CoA oxidase 1 (ACOX1), untagged, in vitro synthesized (mouse) (UniProt Q9R0H0); assay: sucrose gradient centrifugation; 35S-labelled protein synthesized (30 min ACOX1, 45 min UOX) and chased for 4 h with cycloheximide without PEX5; 5-30% sucrose in buffer B, 39 000 r.p.m., 29 h, 4°C
[2] = biological target: the molecule itself; assay: as above

Molecule | stoichiometry N [1] | stoichiometry N [2]
acyl-CoA oxidase 1 (ACOX1), untagged, in vitro synthesized (from UniProt Q9R0H0 1-661) (natural protein) | 2 | 
urate oxidase (UOX), untagged, in vitro synthesized (natural protein, mouse, UniProt P25688 1-303, looked up, 35S-methionine labelled, mouse urate oxidase, cDNA amplified with primers from the start codon to the stop codon, in pGEM4; also called mUOX; monomeric UOX; source: in vitro translated (rabbit reticulocyte lysate, TnT T7 QuickCoupled kit), not purified) MAHYHDNYGKNDEVEFVRTGYGKDMVKVLHIQRDGKYHSIKEVATSVQLTLRSKKDYLHGDNSDIIPTDTIKNTVHVLAKLRGIRNIETFAMNICEHFLSSFNHVTRAHVYVEEVPWKRFEKNGIKHVHAFIHTPTGTHFCEVEQMRNGPPVIHSGIKDLKVLKTTQSGFEGFLKDQFTTLPEVKDRCFATQVYCKWRYQRRDVDFEAIWGAVRDIVLQKFAGPYDKGEYSPSVQKTLYDIQVLSLSQLPEIEDMEISLPNIHYFNIDMSKMGLINKEEVLLPLDNPYGKITGTVKRKLPSRL |  | 4
